The target in the assay is CD33 on MV-4-11 human AML cells (human) (UniProt P20138). Description: flow cytometry, cell-cell binding: HA-positive erythroid cells within the CFSE-positive MV4-11 population (negative control). For orientation: In flow cytometry, cells or beads pass a laser one at a time.
Sequence of UniProt P20138 (P20138 18-364 limits assumed): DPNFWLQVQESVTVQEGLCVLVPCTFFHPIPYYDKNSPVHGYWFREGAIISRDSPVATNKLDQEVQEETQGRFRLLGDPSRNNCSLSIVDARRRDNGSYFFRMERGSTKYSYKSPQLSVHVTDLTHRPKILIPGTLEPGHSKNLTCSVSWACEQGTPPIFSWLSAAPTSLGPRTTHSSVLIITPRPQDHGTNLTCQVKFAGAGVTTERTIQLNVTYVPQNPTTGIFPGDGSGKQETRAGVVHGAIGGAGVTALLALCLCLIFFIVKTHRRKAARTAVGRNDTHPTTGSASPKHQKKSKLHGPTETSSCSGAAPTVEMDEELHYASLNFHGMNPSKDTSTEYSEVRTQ

For the substance “HA-GPA (HA tag-Glycophorin A) expressed on erythroid cells, negative control”, the percent of erythroid cells positive for binding to MV4-11 was 10.7%.

For the origin of these results see patent publication US20190160102A1.
